Measured values: patent publication US5635384 (DowElanco, dated 1997)

Target: T1, maize αβ RIP β fragment (maize)
T1 chain: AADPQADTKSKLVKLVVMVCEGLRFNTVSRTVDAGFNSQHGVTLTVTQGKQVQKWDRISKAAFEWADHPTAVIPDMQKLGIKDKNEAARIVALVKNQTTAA
Assay: reverse phase and ion exchange chromatography

B1: maize αβ RIP α fragment (other)
chain: KRIVPKFTEIFPVEDANYPYSAFIASVRKDVIKHCTDHKGIFQPVLPPEKKVPELWFYTELKTRTSSITLAIRMDNLYLVGFRTPGGVWWEFGKDGDTHLLGDNPRWLGFGGRYQDLIGNKGLETVTMGRAEMTRAVNDLAKKKK
binding result: binds
